What follows are sequences tested on Escherichia coli TOP10 (assay: shrunken log2 fold change of peptide-encoding DNA abundance (4.5 h post-induction vs induction); higher = less antimicrobial activity (less host growth inhibition)). Conditions: time post-induction: 4.5 h; library: site-saturation at positions 5, 18, 19, 20.
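Also: peptides expressed intracellularly from a pBAD plasmid library in pooled LB shake-flask culture, induced with 0.3% L-arabinose, DNA abundance read by NGS, three biological replicates, DESeq2 with apeglm shrinkage.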

Sequence | shrunken log2 fold change
RRIRIRPPRLPRPRPRPVSKPRP | -0.0544
RRIRARPPRLPRPRPRPFHNPRP | -0.625
RRIRIRPPRLPRPRPRPGLQPRP | 0.0696
RRIRLRPPRLPRPRPRPKAIPRP | 0.0195
RRIRCRPPRLPRPRPRPRQQPRP | -0.245
RRIRVRPPRLPRPRPRPFRFPRP | 0.0201
RRIRSRPPRLPRPRPRPPFAPRP | 1.88
RRIRYRPPRLPRPRPRPALQPRP | -0.1
RRIRKRPPRLPRPRPRPDPGPRP | 0.335
RRIRQRPPRLPRPRPRPVQGPRP | 0.0162
RRIRSRPPRLPRPRPRPQNKPRP | -0.561
RRIRCRPPRLPRPRPRPANCPRP | -0.364
RRIRFRPPRLPRPRPRPWKLPRP | -0.0164
RRIRWRPPRLPRPRPRPAAMPRP | 0.604
RRIRFRPPRLPRPRPRPGPAPRP | 0.544
RRIRWRPPRLPRPRPRPILNPRP | -0.362
RRIRKRPPRLPRPRPRPWRPPRP | 0.177
RRIRCRPPRLPRPRPRPACQPRP | 0.305
RRIRRRPPRLPRPRPRPDMRPRP | 0.415
RRIRPRPPRLPRPRPRPDLMPRP | 0.303
RRIRTRPPRLPRPRPRPGGMPRP | -0.117
RRIRYRPPRLPRPRPRPMSPPRP | -0.0952
RRIRTRPPRLPRPRPRPSVRPRP | -0.155
RRIRNRPPRLPRPRPRPFYAPRP | -0.281
RRIRPRPPRLPRPRPRPSFTPRP | -0.213

Sequence | shrunken log2 fold change
RRIRQRPPRLPRPRPRPPGIPRP | -0.0579
RRIRYRPPRLPRPRPRPLDPPRP | -0.307
RRIRFRPPRLPRPRPRPDANPRP | -0.138
RRIRWRPPRLPRPRPRPNNDPRP | -0.213
RRIRVRPPRLPRPRPRPHWEPRP | -0.0118
RRIRYRPPRLPRPRPRPHAVPRP | -0.4
RRIRWRPPRLPRPRPRPVRCPRP | 0.418
RRIRYRPPRLPRPRPRPDIRPRP | -0.00867
RRIRSRPPRLPRPRPRPTVIPRP | -0.0891
RRIRGRPPRLPRPRPRPDAHPRP | 0.421
RRIRRRPPRLPRPRPRPHWKPRP | -0.00963
RRIRKRPPRLPRPRPRPQIEPRP | 0.0198
RRIRSRPPRLPRPRPRPPQNPRP | 0.294
RRIRFRPPRLPRPRPRPCTHPRP | -0.842
RRIRMRPPRLPRPRPRPEVCPRP | 0.0476
RRIRWRPPRLPRPRPRPNDPPRP | -0.137
RRIRDRPPRLPRPRPRPAYYPRP | -0.947
RRIRRRPPRLPRPRPRPMFIPRP | -0.275
RRIRPRPPRLPRPRPRPWMVPRP | 0.0262
RRIRKRPPRLPRPRPRPHLNPRP | 0.14
RRIRYRPPRLPRPRPRPIKKPRP | 0.017
RRIRKRPPRLPRPRPRPTFKPRP | 0.0344
RRIRMRPPRLPRPRPRPSMEPRP | 0.484
RRIRCRPPRLPRPRPRPFHKPRP | -0.0775
RRIRERPPRLPRPRPRPQFNPRP | -0.167

Sequence | shrunken log2 fold change
RRIRRRPPRLPRPRPRPESPPRP | 0.5
RRIRTRPPRLPRPRPRPRQMPRP | 0.641
RRIRRRPPRLPRPRPRPFVNPRP | -0.049
RRIRYRPPRLPRPRPRPMNHPRP | -0.262
RRIRLRPPRLPRPRPRPSTNPRP | -0.451
RRIRTRPPRLPRPRPRPCYAPRP | -0.215
RRIRGRPPRLPRPRPRPAFRPRP | 0.749
RRIRKRPPRLPRPRPRPLDVPRP | 0.0117
RRIRTRPPRLPRPRPRPQQCPRP | -0.0115
RRIRHRPPRLPRPRPRPRDDPRP | -0.0505
RRIRNRPPRLPRPRPRPPDQPRP | 0.184
RRIRGRPPRLPRPRPRPFLDPRP | 0.209
RRIRARPPRLPRPRPRPAIFPRP | 0.562
RRIRDRPPRLPRPRPRPFDMPRP | 0.0213
RRIRVRPPRLPRPRPRPMVMPRP | -0.0371
RRIRKRPPRLPRPRPRPCWYPRP | -0.139
RRIRPRPPRLPRPRPRPWWFPRP | -0.133
RRIRWRPPRLPRPRPRPCDSPRP | -0.00192
RRIRNRPPRLPRPRPRPSDQPRP | 0.0574
RRIRERPPRLPRPRPRPGYVPRP | -0.227
RRIRVRPPRLPRPRPRPVYSPRP | -0.0974
RRIRPRPPRLPRPRPRPYMEPRP | 1.54
RRIRRRPPRLPRPRPRPRLCPRP | 0.472
RRIRKRPPRLPRPRPRPIITPRP | 0.0225
RRIRCRPPRLPRPRPRPRQWPRP | -0.108

Reference: the supplement of paper PMC9112550, “Optimization of the antimicrobial peptide Bac7 by deep mutational scanning” (BMC Biology, 2022)
